The target in one test is CD40ΔCD-GFP-HA (UniProt P42212 1-238 = GFP, limits assumed). The test is described as follows: co-immunoprecipitation with anti-GFP, anti-HA blot, 293T cells. The protocol:
(§1) The PCR product was digested with BamHI and EcoRI and cloned into pcDNA3. The PCR fragments containing the receptor fragments were then introduced into this plasmid using the EcoRI and XhoI sites. For the GFP/CFP/YFP chimeras, the fragments were amplified by PCR and introduced in-frame into the XhoI and XbaI sites of p60ΔCD-HA. 293T cells were transfected with Fugene 6 (Boehringer Mannheim) as per manufacturer's protocol. Cells were lysed in 150 mM NaCl, 20 mM Tris.Cl [pH 7.5], 1 mM EDTA, 30 mM NaF, 2 mM β-glycerophosphate, 1 mM sodium orthovanadate, 5 mM iodoacetamide, 2 mM dithiothreitol (DTT), 1% TRITON X-100 and protease inhibitors (Boehringer Mannheim). After pre-clearing with protein G agarose beads (Boehringer Mannheim) and normal mouse IgG, proteins were immunoprecipitated from the lysates with […] anti-GFP and protein G agarose beads. Immune complexes were washed twice with lysis buffer containing 0.5 M NaCl and then three times with regular lysis buffer. Immune-complexes were resolved on Tris/Glycine gels (Novex).

The next test concerns the target HA HVEMΔCD:GFP (UniProt P42212 1-238 = GFP, limits assumed). The experiment in a line: co-immunoprecipitation with anti-GFP, anti-Fas C-terminal blot.
The next test deals with T1, p60ΔCD-GFP-HA (UniProt P42212 1-238 = GFP, limits assumed).
T1 construct: GFP introduced in-frame into p60ΔCD-HA; p60 limits deduced as for p60ΔCD-HA; also called chimeric p60 receptor with the cytoplasmic domain replaced by GFP
The test is described as follows: co-immunoprecipitation with anti-GFP, anti-HA blot, 293T cells. The protocol:
as §1

Test [1] addresses T2, TNFα, biotinylated form (human, UniProt P01375 77-233, biotinylated).
T2 construct: also called biotinylated human TNF-α; Bt-TNF-α
The experiment in a line: TNFα staining of transfected 293T cells, flow cytometry. On the technique in general: Flow cytometry measures light scatter and fluorescence of single cells or particles in a stream.

Test [2] concerns the target T2, TNFα, biotinylated form. The experiment in a line: biotinylated TNFα staining.
The next test deals with T3, p80 TNFR, full-length (Homo sapiens (Human), UniProt P20333 23-461).
T3 construct: Endogenous in H9 cells (crosslinking) and transfected full-length p80 in 293T cells (co-immunoprecipitation); also called TNFR2; intact p80
T3 sequence: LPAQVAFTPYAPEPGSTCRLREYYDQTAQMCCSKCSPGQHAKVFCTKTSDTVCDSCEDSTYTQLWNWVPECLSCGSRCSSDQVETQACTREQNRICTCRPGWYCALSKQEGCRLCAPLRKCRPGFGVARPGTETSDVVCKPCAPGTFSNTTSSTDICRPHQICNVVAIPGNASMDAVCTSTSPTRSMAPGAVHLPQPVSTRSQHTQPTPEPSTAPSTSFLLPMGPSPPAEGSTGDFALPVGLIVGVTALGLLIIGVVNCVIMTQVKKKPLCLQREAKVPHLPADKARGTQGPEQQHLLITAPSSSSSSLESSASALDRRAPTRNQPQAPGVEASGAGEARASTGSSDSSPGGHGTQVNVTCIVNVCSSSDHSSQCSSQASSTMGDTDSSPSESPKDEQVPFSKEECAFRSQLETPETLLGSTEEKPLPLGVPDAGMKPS
The experiment in a line: immunoprecipitation of DTSSP-crosslinked complexes of H9 cells with anti-p60 antibody. The protocol: H9 lymphoma cells were washed and resuspended in PBS. […] Cells were then treated with 2 mM of the crosslinker DTSSP (Pierce) for 30 minutes and the reaction was quenched with 20 mM Tris.Cl [pH 7.5] for 15 minutes on ice. The cells were lysed in 150 mM NaCl, […] [pH 7.5], 1 μM EDTA, 30 mM NaF, 2 mM b-glycerophosphate and 1 mM sodium orthovanadate with protease inhibitors added (Boehringer Mannheim). […] Densitometry was performed with a Kodak Image Station 440.

The values that follow come from patent publication US20100041596A1 (published 2010).

B1: p80ΔCD-HA (receptor)
chain: LPAQVAFTPYAPEPGSTCRLREYYDQTAQMCCSKCSPGQHAKVFCTKTSDTVCDSCEDSTYTQLWNWVPECLSCGSRCSSDQVETQACTREQNRICTCRPGWYCALSKQEGCRLCAPLRKCRPGFGVARPGTETSDVVCKPCAPGTFSNTTSSTDICRPHQICNVVAIPGNASMDAVCTSTSPTRSMAPGAVHLPQPVSTRSQHTQPTPEPSTAPSTSFLLPMGPSPPAEGSTGDFALPVGLIVGVTALGLLIIGVVNCVIMTQVKKKPL
notes: also called tailless p80
On to B1, for which the binding result with CD40ΔCD-GFP-HA was “no binding”.

B2: wild-type (WT) Fas (receptor)
chain: QVTDINSKGLELRKTVTTVETQNLEGLHHDGQFCHKPCPPGERKARDCTVNGDEPDCVPCQEGKEYTDKAHFSSKCRRCRLCDEGHGLEVEINCTRTQNTKCRCKPNFFCNSTVCEHCDPCTKCEHGIIKECTLTSNTKCKEEGSRSNLGWLCLLLLPIPLIVWVKRKEVQKTCRKHRKENQGSHESPTLNPETVAINLSDVDLSKYITTIAGVMTLSQVKGFVRKNGVNEAKIDEIKNDNVQDTAEQKVQLLRNWHQLHGKKEAYDTLIKDLKKANLCTLAEKIQTIILKDITSDSENSNFRNEIQSLV
notes: Transfected full-length Fas; also called full-length Fas; intact Fas
In the case of B2, in the test with HA HVEMΔCD:GFP, the binding result is recorded as “no binding”.

B3: HVEMΔCD-HA (receptor)
chain: LPSCKEDEYPVGSECCPKCSPGYRVKEACGELTGTVCEPCPPGTYIAHLNGLSKCLQCQMCDPAMGLRASRNCSRTENAVCGCSPGHFCIVQDGDHCAACRAYATSSPGQRVQKGGTESQDTLCQNCPPGTFSPNGTLEECQHQTKCSWLVTKAGAGTSSSHWVWWFLSGSLVIVIVCSTVGLIICVKRR
notes: also called herpesvirus entry mediator without cytoplasmic domain
As to B3, in the test with p60ΔCD-GFP-HA, the binding result is recorded as “no binding”.

B4: p80 10-54 / p60 55-211 chimera (receptor, not shown: small tags and cut ends)
chain (part 1 of 2): LPAQVAFTPY
chain (part 2 of 2): YAPEPGSTCRLREYYDQTAQMCCSKCSPGQHAKVFCTKTSDTVCDCESGSFTASENHLRHCLSCSKCRKEMGQVEISSCTVDRDTVCGCRKNQYRHYWSENLFQCFNCSLCLNGTVHLSCQEKQNTVCTCHAGFFLRENECVSCSNCKKSLECTKLCLPQIENVKGTEDSGTTVLLPLVIFFGLCLLSLLFIGLMYRYQRWK
notes: Name formed from the printed name of its (R1) variant; also called PLAD-deleted p60 with the PLAD from p80 added
Consider B4, for which the binding result with TNFα, biotinylated form [1] is “binds”.

B5: p60ΔCD-HA Q24A (receptor, not shown: small tags and cut ends)
chain: LVPHLGDREKRDSVCPQGKYIHPANNSICCTKCHKGTYLYNDCPGPGQDTDCRECESGSFTASENHLRHCLSCSKCRKEMGQVEISSCTVDRDTVCGCRKNQYRHYWSENLFQCFNCSLCLNGTVHLSCQEKQNTVCTCHAGFFLRENECVSCSNCKKSLECTKLCLPQIENVKGTEDSGTTVLLPLVIFFGLCLLSLLFIGLMYRYQRWK
notes: Mutant of p60ΔCD-HA; numbers count on mature p60
For B5, the binding result with TNFα, biotinylated form [2] was “binds”.

B6: p60 TNFR, full-length (receptor)
chain: LVPHLGDREKRDSVCPQGKYIHPQNNSICCTKCHKGTYLYNDCPGPGQDTDCRECESGSFTASENHLRHCLSCSKCRKEMGQVEISSCTVDRDTVCGCRKNQYRHYWSENLFQCFNCSLCLNGTVHLSCQEKQNTVCTCHAGFFLRENECVSCSNCKKSLECTKLCLPQIENVKGTEDSGTTVLLPLVIFFGLCLLSLLFIGLMYRYQRWKSKLYSIVCGKSTPEKEGELEGTTTKPLAPNPSFSPTPGFTPTLGFSPVPSSTFTSSSTYTPGDCPNFAAPRREVAPPYQGADPILATALASDPIPNPLQKWEDSAHKPQSLDTDDPATLYAVVENVPPLRWKEFVRRLGLSDHEIDRLELQNGRCLREAQYSMLATWRRRTPRREATLELLGRVLRDMDLLGCLEDIEEALCGPAALPPAPSLLR
notes: Endogenous receptor of the cells used (H9 cells in the crosslinking); also called TNFR1; endogenous p60
Consider B6, for which the binding result with p80 TNFR, full-length is “no binding”.
